Experiment [1] deals with T1, Biotinylated human CD3E&D (human, UniProt P07766 23-126; P04234 22-105, biotin label).
T1 construct: also called CDD-H82W6
Nature of the experiment: BLI (Octet), biotinylated CD3 on SA sensor, 1:1 global fit.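 Note: antibodies applied as analyte in 2-fold serial dilutions, with a 180 s association phase followed by a 300 s dissociation phase.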 On the technique in general: BLI is a label-free optical method that tracks binding on a fibre tip over time.
Description: (§1) The binding kinetics between proteins and antibodies was analyzed by the Biolayer Interferometry (BLI) technique using an Octet Red 96e (Fortebio) system. Human CD3E (Acro, CDE-H5223), cynomolgus CD3E (Acro, CDE-C5226) and murine CD3E (Acro, CDE-M5256) were mixed with biotin (Thermo Scientific, A39257) in a molar ratio of 1:3. The mixture was incubated at 4° C. overnight, and then excess biotin was removed to obtain biotinylated CD3E. The rotation speed was set at 1000 rpm for the system. […] After being equilibrated in the buffer for 120 s, the SA sensor with captured CD3 was allowed to bind to 2-fold serially diluted antibodies. […] Finally, the SA sensor was immersed in a 10 mM glycine-hydrochloric acid solution at pH 1.5 for regeneration to elute the antibodies bound to the sensor. […] For the interactions of fast binding and fast dissociation, the “steady state” method was selected to fit the data to obtain KD(M) values.

Experiment [2] deals with T2, Human CD3E (Acro, CDE-H5223) (human, UniProt P07766 23-126, biotinylated (mixed with biotin 1:3)).
T2 construct: also called Human CD3Ec
The description is as above.
Description: as §1

Experiment [3] addresses T3, Biotinylated murine CD3E&D (murine, UniProt P22646 22-108; P04235 22-105, biotin label).
T3 construct: also called CDD-M82W5
Nature of the experiment: BLI (Octet), biotinylated CD3 on SA sensor.
Description: as §1

The target of experiment [4] is T4, human CD3 on Jurkat cells (human, UniProt P07766 23-207).
T4 construct: whole, on cells; on cells it stands in the whole CD3/TCR complex; also called CD3-expressing cells
Nature of the experiment: FACS on Jurkat cells.
Description: (§2) Antibodies were assayed for binding affinity by FACS. Test cells include HEK293/hCLDN18.2, HEK293/hCLDN18.1, NUGC4_D8 and Jurkat cells. […] The cell density was adjusted to 10⁶ cells/mL, and 50 μL of the cell suspension was added to each well of a 96-well plate. Antibodies were diluted to different concentrations with FACS buffer, and 50 μL of the antibody dilution was added to each well of the 96-well plate. After 2 h of incubation at 4° C., the plate was washed twice with FACS buffer. […] After 1 h of incubation at 4° C., the plate was washed twice with FACS buffer. The cells were resuspended in fixative solution, and then the fluorescence of the cells was monitored using an FACS instrument (ACEA NovoCyte).

In experiment [5] the target is T5, human CLDN18.2 (human).
T5 construct: the HEK293 line was made with a GenScript plasmid; also called hCLDN18.2
Nature of the experiment: FACS on NUGC4_D8 cells.

In experiment [6] the target is T5, human CLDN18.2. Put plainly: cell-based or functional assay.
Experiment [7] addresses T6, human CLDN18.1 (human, UniProt P56856 1-261).
T6 construct: whole, on cells; also called hCLDN18.1
Nature of the experiment: FACS on HEK293/hCLDN18.1 cells.
Description: as §2

Experiment [8] concerns the target T5, human CLDN18.2. Nature of the experiment: FACS on HEK293/hCLDN18.2 cells.
Description: as §2
For experiment [9], the target named is CLDN18.2 of SNU620 cells (methionine to leucine at amino acid 149) (human, UniProt P56856-2 1-261). Nature of the experiment: cell-based or functional assay.
The target in experiment [10] is T4, human CD3 on Jurkat cells. Put plainly: FACS on Jurkat cells (CD3).
Description: as §2

The text below walks through data of US20250340631A1 (HARBOUR BIOMED SHANGHAI, published 2025).

Changes are numbered by the printed parent chain.

T1 sequence (P07766 23-126, chain 1 of 2): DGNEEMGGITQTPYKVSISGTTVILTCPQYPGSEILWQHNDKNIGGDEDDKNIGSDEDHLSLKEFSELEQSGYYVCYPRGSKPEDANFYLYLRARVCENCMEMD
T1 sequence (P04234 22-105, chain 2 of 2): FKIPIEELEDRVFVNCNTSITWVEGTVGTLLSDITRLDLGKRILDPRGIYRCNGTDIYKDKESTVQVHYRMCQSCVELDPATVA
T2 sequence (P07766 23-126 limits assumed): as the sequence (P07766 23-126, chain 1 of 2) above
T4 sequence (P07766 23-207): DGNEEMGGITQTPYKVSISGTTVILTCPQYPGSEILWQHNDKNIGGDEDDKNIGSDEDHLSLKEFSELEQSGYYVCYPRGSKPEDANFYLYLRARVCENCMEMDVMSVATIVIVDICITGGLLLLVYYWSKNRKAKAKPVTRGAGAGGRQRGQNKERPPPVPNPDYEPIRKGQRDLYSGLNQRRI
CLDN18.2 of SNU620 cells (methionine to leucine at amino acid 149), sequence (P56856 other isoform, or with tags, fused parts or gaps limits assumed): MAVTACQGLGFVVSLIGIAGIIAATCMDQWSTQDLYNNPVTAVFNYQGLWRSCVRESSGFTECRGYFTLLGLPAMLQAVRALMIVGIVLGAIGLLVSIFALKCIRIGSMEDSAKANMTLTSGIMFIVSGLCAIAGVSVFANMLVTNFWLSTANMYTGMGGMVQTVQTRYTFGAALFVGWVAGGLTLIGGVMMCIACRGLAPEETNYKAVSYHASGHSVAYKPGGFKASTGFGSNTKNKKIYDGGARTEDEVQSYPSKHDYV
T3 sequence (P22646 22-108, chain 1 of 2): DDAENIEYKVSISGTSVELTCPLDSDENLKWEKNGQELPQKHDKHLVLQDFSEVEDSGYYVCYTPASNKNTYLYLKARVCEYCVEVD
T3 sequence (P04235 22-105, chain 2 of 2): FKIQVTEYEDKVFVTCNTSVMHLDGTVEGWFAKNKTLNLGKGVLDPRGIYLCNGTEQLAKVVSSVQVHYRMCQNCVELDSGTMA
T6 sequence (P56856 whole entry): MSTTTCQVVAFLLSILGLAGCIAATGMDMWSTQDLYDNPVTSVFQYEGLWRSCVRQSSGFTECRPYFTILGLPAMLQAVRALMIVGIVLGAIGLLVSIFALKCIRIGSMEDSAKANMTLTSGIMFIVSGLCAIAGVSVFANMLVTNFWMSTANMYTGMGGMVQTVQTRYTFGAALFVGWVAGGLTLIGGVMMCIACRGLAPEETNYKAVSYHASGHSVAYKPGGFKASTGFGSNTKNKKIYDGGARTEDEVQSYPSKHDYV

B1: PR004931 (bispecific antibody)
chain 1: QVQLVQSGAEVKKPGASVKVSCKASGYTFTEFGMNWVRQAPGQGLEWMGWINTKTGEATYVEEFKGRVTFTTDTSTSTAYMELRSLRSDDTAVYYCARWDFAYYVEAMDYWGQGTTVTVSSASTKGPSVFPLAPSSKSTSGGTAALGCLVKDYFPEPVTVSWNSGALTSGVHTFPAVLQSSGLYSLSSVVTVPSSSLGTQTYICNVNHKPSNTKVDKKVEPKSCDGGGGSGGGGSEVQLLESGGGLVQPGGSLRLSCAASGFTFSTYAMNWVRQAPGKGLEWVSRIRSKYNNYATYYADSVKGRFTISRDDSKNTLYLQMNSLRAEDTAVYYCVRHGNFGNSYVSWFAYWGQGTLVTVSSASVAAPSVFIFPPSDEQLKSGTASVVCLLNNFYPREAKVQWKVDNALQSGNSQESVTEQDSKDSTYSLSSTLTLSKADYEKHKVYACEVTHQGLSSPVTKSFNRGECDKTHTCPPCPAPEAAGGPSVFLFPPKPKDTLMISRTPEVTCVVVDVSHEDPEVKFNWYVDGVEVHNAKTKPREEQYNSTYRVVSVLTVLHQDWLNGKEYKCKVSNKALGAPIEKTISKAKGQPREPQVYTLPPCREEMTKNQVSLWCLVKGFYPSDIAVEWESNGQPENNYKTTPPVLDSDGSFFLYSKLTVDKSRWQQGNVFSCSVMHEALHNHYTQKSLSLSPGK
chain 2: QAVVTQEPSLTVSPGGTVTLTCGSSTGAVTTSNYANWVQEKPGQAFRGLIGGTNKRAPGTPARFSGSLLGGKAALTLSGAQPEDEAEYYCALWYSNLWVFGGGTKLTVLSSASTKGPSVFPLAPSSKSTSGGTAALGCLVKDYFPEPVTVSWNSGALTSGVHTFPAVLQSSGLYSLSSVVTVPSSSLGTQTYICNVNHKESNTKVDKKVEPKSC
chain 3: QVQLVQSGAEVKKPGASVKVSCKASGYTFTEFGMNWVRQAPGQGLEWMGWINTKTGEATYVEEFKGRVTFTTDTSTSTAYMELRSLRSDDTAVYYCARWDFAYYVEAMDYWGQGTTVTVSSASTKGPSVFPLAPSSKSTSGGTAALGCLVKDYFPEPVTVSWNSGALTSGVHTFPAVLQSSGLYSLSSVVTVPSSSLGTQTYICNVNHKPSNTKVDKKVEPKSCDKTHTCPPCPAPEAAGGPSVFLFPPKPKDTLMISRTPEVTCVVVDVSHEDPEVKFNWYVDGVEVHNAKTKPREEQYNSTYRVVSVLTVLHQDWLNGKEYKCKVSNKALGAPIEKTISKAKGQPREPQVCTLPPSREEMTKNQVSLSCAVKGFYPSDIAVEWESNGQPENNYKTTPPVLDSDGSFFLVSKLTVDKSRWQQGNVFSCSVMHEALHNHYTQKSLSLSPGK
chain 4: DIQMTQSPSSLSASVGDRVTITCKASAAVGTYVAWYQQKPGKAPKLLIYSASYRKRGVPSRFSGSGSGTDFTLTISSLQPEDFATYYCHQYYTYPLFTFGQGTKLEIKRTVAAPSVFIFPPSDEQLKSGTASVVCLLNNEYPREAKVQWKVDNALQSGNSQESVTEQDSKDSTYSLSSTLTLSKADYEKHKVYACEVTHQGLSSPVTKSFNRGEC
notes: also called anti-CEA×CD3 bispecific antibody (WO2017055389A1, Roche)
Consider B1, for which, in experiment [1], the affinity, expressed as Kd, was 33.7 nM; the koff (commonly the rate constant with which the complex falls apart) amounted to 0.00137 s⁻¹; the kon (in general, a measure of how fast the partners come together) is 40700 M⁻¹ s⁻¹. In addition, in experiment [2], the Kd (in general, a measure of binding affinity in units of concentration) was 30.8 nM; the koff stood at 0.00225 s⁻¹; the kon turned out to be 73100 M⁻¹ s⁻¹. The binding result in experiment [3] is reported as “no binding (tested: 120-7.5 nM)”.

B2: PR005520 (bispecific antibody)
chain 1: EVQLVESGGGLVQPGGSLRLSCAASGFTFSSYWMHWVRQVPGKGLVWVSRINSDGSRTIYADSVKGRFTISRDNAKNTLYLQMNSLRAEDTAVYYCARGEDHDILTGYPIRGQGTTVTVSSGGGGSGGGGSGGGGSEVQLVESGGGLVQPGGSLRLSCAASGFTFSSYWMHWVRQVPGKGLVWVSRINSDGSRTIYADSVKGRFTISRDNAKNTLYLQMNSLRAEDTAVYYCARGEDHDILTGYPIRGQGTTVTVSSASEPKSSDKTHTCPPCPAPEAAGGPSVFLFPPKPKDTLMISRTPEVTCVVVDVSHEDPEVKFNWYVDGVEVHNAKTKPREEQYNSTYRVVSVLTVLHQDWLNGKEYKCKVSNKALPAPIEKTISKAKGQPREPQVCTLPPSREEMTKNQVSLSCAVKGFYPSDIAVEWESNGQPENNYKTTPPVLDSDGSFFLVSKLTVDKSRWQQGNVFSCSVMHEALHNHYTQKSLSLSPGK
chain 2: not shown
light: QAVVTQEPSLTVSPGGTVTLTCRSSTGAVTTSNYANWVQQKPGQAPRGLIGGTNKRAPWTPARFSGSLLGDKAALTLLGAQPEDEAEYFCALWYSNLWVFGGGTKLTVLGQPKAAPSVTLFPPSSEELQANKATLVCLISDFYPGAVTVAWKADSSPVKAGVETTTPSKQSNNKYAASSYLSLTPEQWKSHRSYSCQVTHEGSTVEKTVAPTECS
notes: PR001848 / PR004533; LALA
Turning to B2, the values for the binding result in experiment [4] and in experiment [7] were “binds” and “no binding”, respectively. Further, the EC50 (as a rule, the midpoint of the concentration-response curve) in experiment [5] was determined as 13.9 nM. Besides, in [6], the “TDCC, Titer EC50 (pM), NUGC4_D8” value turned out to be 22.4 pM.

B3: PR005401 (bispecific antibody, human IgG1, lambda, L234A L235A)
chain: B2 chain 1 with N52D, D54R, N188D, D190R
heavy: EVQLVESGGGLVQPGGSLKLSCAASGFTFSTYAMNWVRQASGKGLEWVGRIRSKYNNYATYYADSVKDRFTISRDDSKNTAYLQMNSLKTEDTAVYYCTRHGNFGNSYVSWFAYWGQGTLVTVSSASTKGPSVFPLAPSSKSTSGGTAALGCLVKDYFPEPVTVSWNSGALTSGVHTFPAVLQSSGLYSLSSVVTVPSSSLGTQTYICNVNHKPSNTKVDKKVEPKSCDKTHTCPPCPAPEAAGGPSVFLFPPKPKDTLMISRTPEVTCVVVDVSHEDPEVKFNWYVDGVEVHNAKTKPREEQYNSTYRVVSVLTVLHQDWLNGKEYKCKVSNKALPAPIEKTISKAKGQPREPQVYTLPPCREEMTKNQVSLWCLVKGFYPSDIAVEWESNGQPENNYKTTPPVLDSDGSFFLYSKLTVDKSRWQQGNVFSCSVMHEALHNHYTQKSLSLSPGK
light: B2 light
notes: structure 1; CD3 Fab from PR003886, CLDN18.2 VH from PR007244; LALA
Consider B3, for which, in [4], the binding result is reported as “binds”. Besides, the EC50 in experiment [8] is 17.5 nM; in [5], 13.1 nM. Also, the “TDCC, Titer EC50 (pM), SNU620” value in experiment [9] was found to be 25.8 pM. In experiment [6], the “TDCC, Titer EC50 (pM), NUGC4_D8” value was determined as 6.4 pM.

B4: PR007083 (bispecific antibody, human IgG1, lambda)
chain: B2 chain 1 with S49C, N52S, G55A, I70C, S185C, N188S, G191A, I206C, G281A
heavy: EVQLVESGGGLVQPGGSLKLSCAASGFTFSTYAMNWVRQASGKGLEWVGRIRSKYNNYATYYADSVKDRFTISRDDSKNTAYLQMNSLKTEDTAVYYCTRHGNFGNSYVSWFAYWGQGTLVTVSSASTKGPSVFPLAPSSKSTSGGTAALGCLVKDYFPEPVTVSWNSGALTSGVHTFPAVLQSSGLYSLSSVVTVPSSSLGTQTYICNVNHKPSNTKVDKKVEPKSCDKTHTCPPCPAPEAAGAPSVFLFPPKPKDTLMISRTPEVTCVVVDVSHEDPEVKFNWYVDGVEVHNAKTKPREEQYNSTYRVVSVLTVLHQDWLNGKEYKCKVSNKALPAPIEKTISKAKGQPREPQVYTLPPCREEMTKNQVSLWCLVKGFYPSDIAVEWESNGQPENNYKTTPPVLDSDGSFFLYSKLTVDKSRWQQGNVFSCSVMHEALHNHYTQKSLSLSPGK
light: B2 light
notes: structure 1; CD3 Fab from PR003886; AAA
Molecule B4 yielded an EC50 in experiment [8] of 9.6 nM. In addition, the binding result in experiment [10] is reported as “binds”.
